Measurements from patent US20220226430A1.
Several values for one entry are separate records, joined by “and”; a condition that tells them apart may be missing. Equal values may be shown once.

B1: DARPin dimer DLD-4 (designed binder)
chain: GSDLGKKLLEAARAGQDDEVRILMANGADVNADDRIGMTPLHLAAIGGHLEIVEVLLKNGADVNADDVHGRTPLHLAAGRGHLEIVEVLHGADVNAPDRWGRTPLHLAAHHGHLEIVEVLLKYGADVNAQDKFGKTAFDISIDNGNEDLAEILQSSSEFGGGGSGGGGSGGGGSASDLGKKLLEAARAGQDDEVRILMANGADVNATDHLGVTPLHLAAVLGHLEIVEVLLKHGADVNAYDILGRTPLHLAAWRGHLEIVEVLLKYGADVNADDTSGTTPLHLAAGEGHLEIVEVLLKYGADVNAQDKFGKTAFDISIDNGNEDLAEILQSSS
B2: dimeric DARPin U3D16 (designed binder)
chain: GSDLGKKLLEAARAGQDDEVRILMANGADVNADDRIGMTPLHLAAIGGHLEIVEVLLKNGADVNADDVHGRTPLHLAAGRGHLEIVEVLHGADVNAPDRWGRTPLHLAAHHGHLEIVEVLLKYGADVNAQDKFGKTAFDISIDSGNEDLAEILQSSSGGGGSGGGGSGGGGSGSDLGKKLLEAARAGQDDEVRILMANGADVNAADRYGPTPLHLAAYRGHLEIVEVLLKHGADVNAKDVLGWTPLHLAAWIGHLEIVEVLLKNGADVNARDRTGETPLHLAAAIGHLEIVEVLLKNGADVNAQDKFGKTAFDISIDNGNEDLAEILQSSS

Target: TcdB from C. difficile strain M68 (Clostridium difficile strain M68)
Experiment: cell-based or functional assay

Binder	EC50 against TcdB (in vitro neutralization) [nM]	TcdB neutralization EC50 (Vero cells, CellTiterGlo) [nM]	fold more efficacious than bezlotoxumab at inhibiting TcdB (CellTiter-Glo assay) [fold]	fold higher neutralization activity than D16 alone
B1	0.02	0.016	33	
B2				10 fold and 20 fold
